System: Escherichia coli TOP10
Assay: shrunken log2 fold change of peptide-encoding DNA abundance (4.5 h post-induction vs induction); higher = less antimicrobial activity (less host growth inhibition)
Details: time post-induction: 4.5 h; library: site-saturation at positions 5, 18, 19, 20
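Also: peptides expressed intracellularly from a pBAD plasmid library in pooled LB shake-flask culture, induced with 0.3% L-arabinose, DNA abundance read by NGS, three biological replicates, DESeq2 with apeglm shrinkage.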

RRIRGRPPRLPRPRPRPCFHPRP
shrunken log2 fold change: -0.011

RRIRGRPPRLPRPRPRPCGHPRP
shrunken log2 fold change: 0.666

RRIRGRPPRLPRPRPRPCGYPRP
shrunken log2 fold change: 0.216

RRIRGRPPRLPRPRPRPCKHPRP
shrunken log2 fold change: 0.112

RRIRGRPPRLPRPRPRPCKLPRP
shrunken log2 fold change: -0.378

RRIRGRPPRLPRPRPRPCLEPRP
shrunken log2 fold change: 0.546

RRIRGRPPRLPRPRPRPCLLPRP
shrunken log2 fold change: 0.164

RRIRGRPPRLPRPRPRPCLNPRP
shrunken log2 fold change: 0.165

RRIRGRPPRLPRPRPRPCRPPRP
shrunken log2 fold change: -0.04

RRIRGRPPRLPRPRPRPCRRPRP
shrunken log2 fold change: 0.117

RRIRGRPPRLPRPRPRPCSIPRP
shrunken log2 fold change: 0.0747

RRIRGRPPRLPRPRPRPCVFPRP
shrunken log2 fold change: 0.664

RRIRGRPPRLPRPRPRPCVMPRP
shrunken log2 fold change: 0.516

RRIRGRPPRLPRPRPRPCWGPRP
shrunken log2 fold change: 0.157

RRIRGRPPRLPRPRPRPCWKPRP
shrunken log2 fold change: 0.175

RRIRGRPPRLPRPRPRPCWYPRP
shrunken log2 fold change: 0.0725

RRIRGRPPRLPRPRPRPCYDPRP
shrunken log2 fold change: 0.156

RRIRGRPPRLPRPRPRPDCAPRP
shrunken log2 fold change: 1.53

RRIRGRPPRLPRPRPRPDCFPRP
shrunken log2 fold change: 1.13

RRIRGRPPRLPRPRPRPDCNPRP
shrunken log2 fold change: 0.679

RRIRGRPPRLPRPRPRPDCTPRP
shrunken log2 fold change: 0.615

RRIRGRPPRLPRPRPRPDDKPRP
shrunken log2 fold change: 0.22

RRIRGRPPRLPRPRPRPDEAPRP
shrunken log2 fold change: 1.56

RRIRGRPPRLPRPRPRPDEIPRP
shrunken log2 fold change: -0.0447

RRIRGRPPRLPRPRPRPDGIPRP
shrunken log2 fold change: -0.0219

RRIRGRPPRLPRPRPRPDIFPRP
shrunken log2 fold change: 0.837

RRIRGRPPRLPRPRPRPDKMPRP
shrunken log2 fold change: 0.261

RRIRGRPPRLPRPRPRPDLLPRP
shrunken log2 fold change: 1.51

RRIRGRPPRLPRPRPRPDLTPRP
shrunken log2 fold change: 0.219

RRIRGRPPRLPRPRPRPDNMPRP
shrunken log2 fold change: -0.185

RRIRGRPPRLPRPRPRPDWFPRP
shrunken log2 fold change: 0.448

RRIRGRPPRLPRPRPRPDWYPRP
shrunken log2 fold change: 0.134

RRIRGRPPRLPRPRPRPEACPRP
shrunken log2 fold change: 1.11

RRIRGRPPRLPRPRPRPEAKPRP
shrunken log2 fold change: 1.76

RRIRGRPPRLPRPRPRPEANPRP
shrunken log2 fold change: 0.632

RRIRGRPPRLPRPRPRPECMPRP
shrunken log2 fold change: 1.49

RRIRGRPPRLPRPRPRPECPPRP
shrunken log2 fold change: 0.475

RRIRGRPPRLPRPRPRPEEGPRP
shrunken log2 fold change: 0.0303

RRIRGRPPRLPRPRPRPEFAPRP
shrunken log2 fold change: 1.22

RRIRGRPPRLPRPRPRPEFDPRP
shrunken log2 fold change: 1.8

RRIRGRPPRLPRPRPRPEFHPRP
shrunken log2 fold change: 1.85

RRIRGRPPRLPRPRPRPEFPPRP
shrunken log2 fold change: 0.482

RRIRGRPPRLPRPRPRPEGYPRP
shrunken log2 fold change: 0.118

RRIRGRPPRLPRPRPRPEHIPRP
shrunken log2 fold change: 0.19

RRIRGRPPRLPRPRPRPEHLPRP
shrunken log2 fold change: 0.494

RRIRGRPPRLPRPRPRPELKPRP
shrunken log2 fold change: 0.336

RRIRGRPPRLPRPRPRPENFPRP
shrunken log2 fold change: 0.0598

RRIRGRPPRLPRPRPRPENRPRP
shrunken log2 fold change: 0.19

RRIRGRPPRLPRPRPRPENVPRP
shrunken log2 fold change: 0.328

RRIRGRPPRLPRPRPRPEPCPRP
shrunken log2 fold change: 0.795

RRIRGRPPRLPRPRPRPEQLPRP
shrunken log2 fold change: 0.443

RRIRGRPPRLPRPRPRPEQPPRP
shrunken log2 fold change: 1.68

RRIRGRPPRLPRPRPRPEVVPRP
shrunken log2 fold change: 0.918

RRIRGRPPRLPRPRPRPEYIPRP
shrunken log2 fold change: 0.252

RRIRGRPPRLPRPRPRPFCDPRP
shrunken log2 fold change: 0.456

RRIRGRPPRLPRPRPRPFDWPRP
shrunken log2 fold change: 0.0459

RRIRGRPPRLPRPRPRPFFAPRP
shrunken log2 fold change: 0.747

RRIRGRPPRLPRPRPRPFFVPRP
shrunken log2 fold change: 0.246

RRIRGRPPRLPRPRPRPFGKPRP
shrunken log2 fold change: -0.144

RRIRGRPPRLPRPRPRPFHEPRP
shrunken log2 fold change: -0.537

RRIRGRPPRLPRPRPRPFIDPRP
shrunken log2 fold change: 0.585

RRIRGRPPRLPRPRPRPFKNPRP
shrunken log2 fold change: 0.243

RRIRGRPPRLPRPRPRPFLFPRP
shrunken log2 fold change: 0.39

RRIRGRPPRLPRPRPRPFMLPRP
shrunken log2 fold change: -0.0447

RRIRGRPPRLPRPRPRPFPWPRP
shrunken log2 fold change: 0.383

RRIRGRPPRLPRPRPRPFPYPRP
shrunken log2 fold change: -0.334

RRIRGRPPRLPRPRPRPFQCPRP
shrunken log2 fold change: -0.0282

RRIRGRPPRLPRPRPRPFQFPRP
shrunken log2 fold change: 0.00963

RRIRGRPPRLPRPRPRPFQLPRP
shrunken log2 fold change: 0.0144

RRIRGRPPRLPRPRPRPFRFPRP
shrunken log2 fold change: 0.485

RRIRGRPPRLPRPRPRPFRWPRP
shrunken log2 fold change: 0.053

RRIRGRPPRLPRPRPRPFSPPRP
shrunken log2 fold change: 0.0723

RRIRGRPPRLPRPRPRPFSSPRP
shrunken log2 fold change: 0.193

RRIRGRPPRLPRPRPRPFSWPRP
shrunken log2 fold change: 0.353

RRIRGRPPRLPRPRPRPFTHPRP
shrunken log2 fold change: 0.0753

RRIRGRPPRLPRPRPRPFVNPRP
shrunken log2 fold change: -0.0813

RRIRGRPPRLPRPRPRPFWLPRP
shrunken log2 fold change: 0.299

RRIRGRPPRLPRPRPRPFWQPRP
shrunken log2 fold change: 0.467

RRIRGRPPRLPRPRPRPGAHPRP
shrunken log2 fold change: 0.755

RRIRGRPPRLPRPRPRPGAQPRP
shrunken log2 fold change: 1.19

RRIRGRPPRLPRPRPRPGDAPRP
shrunken log2 fold change: 1.09

RRIRGRPPRLPRPRPRPGDNPRP
shrunken log2 fold change: 0.0889

RRIRGRPPRLPRPRPRPGDVPRP
shrunken log2 fold change: 0.347

RRIRGRPPRLPRPRPRPGEDPRP
shrunken log2 fold change: 0.872

RRIRGRPPRLPRPRPRPGFHPRP
shrunken log2 fold change: 0.296

RRIRGRPPRLPRPRPRPGFLPRP
shrunken log2 fold change: 0.41

RRIRGRPPRLPRPRPRPGHEPRP
shrunken log2 fold change: 0.202

RRIRGRPPRLPRPRPRPGHYPRP
shrunken log2 fold change: 0.00558

RRIRGRPPRLPRPRPRPGIGPRP
shrunken log2 fold change: 0.942

RRIRGRPPRLPRPRPRPGKLPRP
shrunken log2 fold change: 0.461

RRIRGRPPRLPRPRPRPGKSPRP
shrunken log2 fold change: 0.176

RRIRGRPPRLPRPRPRPGKWPRP
shrunken log2 fold change: 0.566

RRIRGRPPRLPRPRPRPGLEPRP
shrunken log2 fold change: 1.1

RRIRGRPPRLPRPRPRPGLKPRP
shrunken log2 fold change: 0.725

RRIRGRPPRLPRPRPRPGLNPRP
shrunken log2 fold change: 4.08

RRIRGRPPRLPRPRPRPGPNPRP
shrunken log2 fold change: 0.941

RRIRGRPPRLPRPRPRPGPQPRP
shrunken log2 fold change: 0.719

RRIRGRPPRLPRPRPRPGQCPRP
shrunken log2 fold change: 0.275

RRIRGRPPRLPRPRPRPGQGPRP
shrunken log2 fold change: 0.0965

RRIRGRPPRLPRPRPRPGRDPRP
shrunken log2 fold change: 0.358

RRIRGRPPRLPRPRPRPGRFPRP
shrunken log2 fold change: 0.45

RRIRGRPPRLPRPRPRPGSPPRP
shrunken log2 fold change: 0.469

RRIRGRPPRLPRPRPRPGSSPRP
shrunken log2 fold change: 0.028

RRIRGRPPRLPRPRPRPGTAPRP
shrunken log2 fold change: 2.14

RRIRGRPPRLPRPRPRPGTGPRP
shrunken log2 fold change: 0.84

RRIRGRPPRLPRPRPRPGVCPRP
shrunken log2 fold change: 0.892

RRIRGRPPRLPRPRPRPGYDPRP
shrunken log2 fold change: 0.371

RRIRGRPPRLPRPRPRPHCHPRP
shrunken log2 fold change: 0.284

RRIRGRPPRLPRPRPRPHCVPRP
shrunken log2 fold change: 0.517

RRIRGRPPRLPRPRPRPHDFPRP
shrunken log2 fold change: -0.0983

RRIRGRPPRLPRPRPRPHEVPRP
shrunken log2 fold change: 0.431

RRIRGRPPRLPRPRPRPHEYPRP
shrunken log2 fold change: -0.325

RRIRGRPPRLPRPRPRPHFFPRP
shrunken log2 fold change: 0.328

RRIRGRPPRLPRPRPRPHGGPRP
shrunken log2 fold change: 0.631

RRIRGRPPRLPRPRPRPHGVPRP
shrunken log2 fold change: 0.00437

RRIRGRPPRLPRPRPRPHGYPRP
shrunken log2 fold change: -0.0362

RRIRGRPPRLPRPRPRPHHNPRP
shrunken log2 fold change: -0.372

RRIRGRPPRLPRPRPRPHIIPRP
shrunken log2 fold change: 0.234

RRIRGRPPRLPRPRPRPHILPRP
shrunken log2 fold change: -0.198

RRIRGRPPRLPRPRPRPHIRPRP
shrunken log2 fold change: 0.0682

RRIRGRPPRLPRPRPRPHKRPRP
shrunken log2 fold change: 0.34

RRIRGRPPRLPRPRPRPHLWPRP
shrunken log2 fold change: 0.942

RRIRGRPPRLPRPRPRPHMIPRP
shrunken log2 fold change: 0.0265

RRIRGRPPRLPRPRPRPHMMPRP
shrunken log2 fold change: -0.0708

RRIRGRPPRLPRPRPRPHMYPRP
shrunken log2 fold change: -0.0997

RRIRGRPPRLPRPRPRPHNSPRP
shrunken log2 fold change: -0.0747

RRIRGRPPRLPRPRPRPHPKPRP
shrunken log2 fold change: 0.865

RRIRGRPPRLPRPRPRPHSNPRP
shrunken log2 fold change: 0.117

RRIRGRPPRLPRPRPRPHVGPRP
shrunken log2 fold change: 0.0375

RRIRGRPPRLPRPRPRPHWFPRP
shrunken log2 fold change: 0.156

RRIRGRPPRLPRPRPRPHWQPRP
shrunken log2 fold change: 0.258

RRIRGRPPRLPRPRPRPHWYPRP
shrunken log2 fold change: -0.0365

RRIRGRPPRLPRPRPRPHYAPRP
shrunken log2 fold change: -0.0664

RRIRGRPPRLPRPRPRPHYKPRP
shrunken log2 fold change: -0.0643

RRIRGRPPRLPRPRPRPIAGPRP
shrunken log2 fold change: 0.701

RRIRGRPPRLPRPRPRPICAPRP
shrunken log2 fold change: 1.2

RRIRGRPPRLPRPRPRPICMPRP
shrunken log2 fold change: 0.454

RRIRGRPPRLPRPRPRPIDNPRP
shrunken log2 fold change: 0.186

RRIRGRPPRLPRPRPRPIGMPRP
shrunken log2 fold change: 0.244

RRIRGRPPRLPRPRPRPIGTPRP
shrunken log2 fold change: 0.334

RRIRGRPPRLPRPRPRPIGWPRP
shrunken log2 fold change: 1.18

RRIRGRPPRLPRPRPRPIHNPRP
shrunken log2 fold change: -0.268

RRIRGRPPRLPRPRPRPIKGPRP
shrunken log2 fold change: -0.0627

RRIRGRPPRLPRPRPRPIKRPRP
shrunken log2 fold change: 0.171

RRIRGRPPRLPRPRPRPIMAPRP
shrunken log2 fold change: 0.401

RRIRGRPPRLPRPRPRPIMNPRP
shrunken log2 fold change: 0.237

RRIRGRPPRLPRPRPRPIMPPRP
shrunken log2 fold change: 0.0639

RRIRGRPPRLPRPRPRPIMTPRP
shrunken log2 fold change: 2.36

RRIRGRPPRLPRPRPRPINEPRP
shrunken log2 fold change: 0.0939

RRIRGRPPRLPRPRPRPINVPRP
shrunken log2 fold change: -0.248
